Experiment: label from the status in PepcDB records

Sequence	protein production
MTVTATSVDEPEQLEPQAAPASRGARRVRRLVPAAAATLSGVLLYVSFPPRTLWWLALPAFAVLGWALRDRTWKAGLGLGYLFGLGFLLPLLVWTGVEVGPGPWLALAVVEAVFVALVGAGIAMVSRLPAWPLWAAALWIAGEAARARAPFGGFPWGKIAFGQADGVFLPLAAAGGTPVLGFAVVLCGFGLYEIVRQVVDGRRTGVVRRGAAAVALLSVAVPVVGALAARSLVSDKAEDGTATVAVIQGNVPRSGLEFNAQRRAVLDHHARETERLAAKIKAGKVAQPDFVLWPENSSDIDPFTNPDARAVIDSAAKAVGVPISVGGVVERDGKLYNEQILWDPAKGALDTYDKRQVQPFGEYLPLRSLLGAINKNWTSMVRQDFSRGTEPGVFTMAGTKVGLATCYEAAFDWAVRDNITHGAQIISVPSNNATFDRSEMTYQQLAMSRVRAVEHSRTVTVPVTSGVSAVIMPDGKITQKTGMFVADSLVQKVPLRSSQTPATRLGILPEMVLVLVAAGGLGWSVAAVVRGRRNDALQG	failed
MPFATNGAPYYEQLVMQIKQQIVQEVLRPGDQLPSIRAMASEMHLNPNTVSKAYQILEHQRAVYTVKGRGTFVSESSQIATDSNAVDDLQTRLQSLLTEAQFLGISAQQVQAWVTTAYQKGESRDEYPS	failed
MFNNDRLLVQILLLALFGACLWVMAPFWSALVWGAVLAFASWPLMRLLTRWFKGRESLAALVMCLCWMLLVAAPLVWLGFNLADHVRDATALIKDIQVDGLPDPPQWLAGIPLVGERLVGLWTTIDQQGAAFMTTVKPYLGEVGNWLLARSAQIGGGILELTLSIVFAFFFYRDGPRLAAFVLSLLERLIGDRAQYYLDLVAGTVQRVVNGVIGTAAAQALLALIGFLIAGIPGALVLGILTFLFSLIPMGPPLVWLPATAWLVWQGEYGMAIFLGIWGMFVISGVDNVLKPYLISRGGNLPLVIVLLGVFGGLLAFGFIGLFIGPTLLAVAYSLLTDWVGSERARNPR	failed
MTDPSSTLRLRGLLAEIVAAPLTRTVALLALCSAYIQGPLTKIFDFPGAIAEMNHFGLQPAAAFAVFVIIFELTASAMVVTGVLRWVGALALSGFTLLATFIALRFWEMAPGMDRMMATNAFFEHLGLAGAFVIVAAIDLTKGTGK	not failed
MRKILVVGAGQSGLQLALGLQSHGYEVTLMSNRTADEIRSGRVMSTQCMFDTALGHERDLQLNFWESQAPKIEGLGVSVAAPGSFDPGPSQRAIDWVGKLDGYAQSVDQRVKMAGWMETFAQRGGQLVIHGAAVSDLDYFSRAYDLVLVSAGKGELVSMFGRDASRSPYSEPQRALAVAYVHGLGPRPEHPDYDAVRCNLVPGVGELFVMPTLTTSGRADILFWEGIPGGPLDVFKGVNDPGEHLSLTLELMERFTPWEYARATKVELTDGNGTLAGRYAPTVRNPVGRLPGGGLVLGVADVVVANDPITGQGSNSASKCAAAYLASIVEHGEKEFDETWMRATFDRYWDTAQHVTKWTNAMLGVPPEHVLNLIGAAGALQPVANRFANGFDNPADFENFFYEPEKTEAYLASVAGS	failed
MSLISIFIPEILLVIMGFIVLAVGMFIQSGKASAAISFITLIAALLSVFFIPYDSSYGITVNKFSVYFSAVLIISALFISLPMYRYVKKRPEVFYASLIFSVIGMVIVAMTWNLVIAFVAFESVSIMTYIMSAYGGKQRNLEATIKYFFTGTIATTFIILGIGFYFFSVHTFSLSPVLNGSSISYYSGTKPEFLLALLFLLIGFGFKLAIFPMHQWAIDAYDGTENGVSAYLSTGTKIMAFVLVLKIFLVGFQSFPTPVYYMFTIIAIITMTYANVAALSQMNVKRLLAYSSVAQAGYMILVISVVSYVGLGSARSVSLAIAAGMFYALVYVFMKGGSFIAMNMVKEDNITFENISGLGKKSPYVAASFSILLLSLAGIPLTGGFLAKYFLFLSVIDSGLWWLAIIAIINSAISVFYYMKVMRYLFWEEPKGEFSTDMGNKAAVIVSAAIVVFLGVFYVLFPVLVGISSQIVG	failed
MTAAGFNSILCLRQLVRLNRRQYSAPAKSVLSGSQTNDQATPPPTSKSADKMRGWQLHNYGDIDELQLSEMLKIPQIRCSNECLVRIRATAVNPIDLAMLRGYGATVLNKMRCQPGDGIEFPLILGREFCGELVQTGMGVSLPLGSRVWGVVPLQATIGSHAEYVAVPSYCLAPAPKELDDYEAASVLYAGLTAWSGLYITGGLGGPCGATTASGGGAHKRVLVLGGSGGVGTLAIQILKSQKVQVLATCSENAIEMVRNLGADLVVDYNNPQAMEELCKYAPYDIVLDCAGQGGQKAAESKYDFRQYITFSSPLLANIDKQGLGVGALKNVFDLFQTNVRSVTQRGGLVKWGFFSPAPQGIQFLQKLVEQRKLMPLIDSSYGFSELPKAFEKMKSGHLRGKIVVKLREETGD	failed
MGRVIVLGEVLLVGLRFVFVLLIYIFVWHVLRLMYLELGLAPAQSSRKRPVLVVLDAKNGGAKRGESYPLGENISIGRDNHNDIIINDSHVSARHAVITRQGREWKILDLDSTNGTYVNGLRLTGPHSLRPGDKISIGGVTFKVGWEDASRSPFPYRTGAAR	failed
MSFKNDHKYQWKDMQGKDFLLPFIYLIGNFCLSIVILTIMIGINETQGKNNANFNANFSGTPGILMEMIAFIIIFALWILFHRHSFRQSWKQGLQNIKQHWKLIVITFIVIIVFKEIYPYLVNAFAPEHWKFEETQNDKMVEEMFATPVSTILAFFSIVIIAPMTEEFLFRHLIIGELGKKLNFYVMSVISIIVFASLHVTEAKSPLEIVMYLAIAVGIVYVYMKSQRSLAVAIALHALNNLLAYIFMIIM	failed
MSAAIAALAASYGSGSGSESDSDSEGSRCPLPAADSLMHLTKSPSAKPSLTVAVDSAPEVAVKEDLETGVHLDPAVKEVQYNPTYETMFAPELLPSHXSXPFEQWHHPRELPTGTRVPAPVTXALFPQERGSVICTCLLSGYALDPSLDNHQVSAKYIGSVEDAEKNQGLTVFETGQKKTEKRKKFKENDASNIDGFLGPWAKYVDEKDVAKPSEEEQKELDEITAKRQKKGKQEEEKPGEEKTILHVKEMYDYQGRSYLHIPQDVGVNLRSSVPPEKCYLPKKQIHVWSGHTKGVSAVRLFPLSGHLLLSCSMDCKIKLWEVYGDRRCLRTFIGHSKAVRDICFNTAGTQFLSAAYDRYLKLWDTETGQCISRFTNRKVPYCVKFNPDEDKQNLFVAGMSDKKIVQWDIRSGEIVQEYDRHLGAVNTIVFVDENRRFVSTSDDKSLRVWEWDIPVDFKYIAEPSMHSMPAVTLSPNGKWLACQSMDNQILIFGAQNRFRLNKKKIFKGHMVAGYACQVDFSPDMSYVISGDGNGKLNIWDWKTTKLYSRFKAHDKVCIGAVWHPHETSKVITCGWDGLIKLWD	failed
MDKVILITGASGGIGEGIARELGRRCENIVGCTPPGPYRGHCHGDSTQEVPPWRRCWTPTVTPWQPLQAAVDTWGRIDVLVNNAGVMPLSACRSGGRVGAHDRREHQGRALGSGPYCQSWRHSVAGRSSISARSALSVVPTAAVYCATKFAVRAISDTAPGEYQYPRHLRQSRRRRKRTCEPSPTRRPWRRWTPIAPSRFSLDIARAVRQVIEAPQSVDTTEITITDRIGQL	not failed
MSPTLSILIPVYKRDCRRLLEELYKQAEELSVGYEIILGDDCSGEPYTSQYIAYEQEGLCRLVSAEENMGAGRLRNRLAEEAQGEQLLILDSDTLPASPDFIERYLRHASGTTVVCGGFVYPPKSTNPLRQRYGAEVESRSAEERARKPHSGFISMAFMIPRKQMLATGFPPNMGMGYEDILFGERLRQAGIPILHIDNPVEHYHCDTAEGFLATTRSYLDNLYCHREELAELVSLLRAYNLLKRLHLEHHHHHH	failed
MKLLIKKITYIIFILCSYCSYGEAKIQLPSILGNGMVLQQKSEVRLWGKATPNKKVTIYTSWNAQQQEVNSNKKGDWIVTVTTPEAGGPYTIRISDGEELLLDDVLIGEVWLCSGQSNMEMPVKGFRGQPAAESQNTIVNVNPNRSLRLFTVQRAYSSILEEDVTGQWEKNTPKSVSTFSAVAYYYGDQLQKVLGIPVGLIHASWSGSSIEPWISKENLLQFPEVDLTPAENPQLKYANGTPTVLYNAMIKPLENYNIKGMIWYQGESNSARPEQYQRLFAVWAKQNRALFRSKDLPIYYTEIAPVASPVDRPFQRAIFREAQLESMHEVSNTGMAFTNDLGSEKFIHAPKKREIGQRLAYWALAKTYQLEGFEYSGPIHRSYMKNGKIIEILFDHADDGLNPENEPLVGFEIASEDSIFYPANAEIINGTSRVKVWSDKVAQPVYVRYAFRNFLRGNLVNNAGLPAAPFRMDLRKMDFQNPEKLGWARVTTFGKLPEYISVYHSPEWIESTRTNAYIAVVDTKKGGSLDVGGADSGVKTPIEFYQSEKRKPSIVLNGGYFANGRTVSLICKNGKILSDNISVVNRLLEGKKTAYYPTRSVFSLYTDGTYHVDWIYKSAQQTYAYDMPALNSSTRPPLSVPSKGFPKGAKVWTAEMGIGAGPILIKDGTIRNSWVEELLDVASGINPQTCQPRSAVGVTQDGKLILFVCEGREQTPDIPGMTLAQLARLMRSFGCVDALNLDGGGSSCMLINGKETIKPCNKYHHQRPVATVLFAR	failed
MGHHHHHHSHMSNAEDIRDLVVTFLEGLRKRSKYVVALQDNPNPAGEESGFLSFAKGDLIILDHDTGEQVMNSGWANGINERTKQRGDFPTDCVYVMPTVTMPPREIVA	failed
MNKEMTLLPPPELVQYVGGDFKKVGKEFLKHFIQIGALKSNEKVLDVGCGVGRMAVPLMNYLNDDGAYYGFDLFKDGITWCQNNISTMRNNFHFEHVDIYNQFYNPEGKEDASQYRFPYEDGTFDFIFLTSVFTHLLPKELEHYVSEIVRVLKKDGRCFITFFLINPESSYYLNAGQSTLGFYHRIENCYVVNKDIPNFAVAYPETDICNLLNKYGLEIINKPHYGLWCGRHEYTSYQDIVLTKKSLEHHHHHH	failed
MIMKKYWKLMLMAVGMSAAFTLASCNDDKDVVIDQIYYISTDPSATTYPTTFSVSLVDNSVAGRPFFYVVGKSTMRVDRNTTLRVEEDSKLVEKYNETYGKKYLPFPEGTYSFSTNEVTINQGDNFSSDTIFISFSNWDKLSKIDKYLLPVSLKAVDDKGAVSMDRNLIYFIADFSTTNTGYNKPAAWKPLDRTDWDVSFSYAYGYDEAQFGGRLAVDGDVSTTWFTWGVVSAGECWWATTLPAPTHLTGFSLTRQTTFGSSYNVREAKVKVKKEGDTEWTEAGLFRFGSFKGNDPQYAVFIPAVENVKEFRIDIVSPADFTGFAELDLYQ	failed
MVKKGFLTGLLLFGIFFGAGNLIFPPALGVASGQDFWPAILGFCLSGVGLAIITLLLGTLTNGGYKTEMSEKFSPWFSLTFLVILYLTIGPLFAIPRTATVSFEIGVAPIVGHSPIALLCFTACFFAAAYYLAIRPNGILDSVGKILTPVFAFLILSLVVVGAIAYGNLESAKASADYAGKAFGSGVLAGYNTLDALAAVAFCLVATETLKKFGFKTKKEYLSTIWIVGIVTSLAFSILYIGLGFLGNKFPVPADILADPNVNKGAYVLSQASYKLFGNFGRYFLSIMVTLTCFTTTVGLIVSVSEFFDKNFRFGNYKLFATVFTLIGFLIANLGLNAVITFSVPVLTLLYPIVIVIVLIILINKWLPLSKKGMSLTIGLVTLVSFVEVLAGQWQEKTLTQLVGFLPFHTISMGWLVPMLIGIVFSLVLSDKQKGQAFDLEKFEG	failed
MWNLETDRVIKEIEKSNGKNIVFHAPEGLKLAVEKEIEKINDYFNSTKNLIMWGAPCYGACDLCDHELKYNNIDLIIHYGHEELPYAKPDIPTIFIHCYYIYDEIEQNNILNKIDEYLQNNPNTIITTTIQFKELLKKYNPNIILGCRANISNKPKSELEQGTEKETENSKILYIGTGRFHPLMLCYKFKKSVNLFNPTSKEFSAISEEEVNKFIKKRIGAISKLLINPPKKIGVVLSTKKGQNRINVYNKIINLLKDNNIEYMPIILNNASPDNLFYDVSAYIICACPRIVLDDYLNYNKTLLTPKEFEMYIKKDFEYVFDEILFDDFEP	failed

From a protein production outcome set (Wang et al. 2014)
